Measurements taken from PMC10875981.

Target: FCγ receptor II (CD32), endogenous on K562 and U937 cells (human (endogenous in K562 and U937)) (UniProt P12318)
Chain of UniProt P12318 (P12318 34-317): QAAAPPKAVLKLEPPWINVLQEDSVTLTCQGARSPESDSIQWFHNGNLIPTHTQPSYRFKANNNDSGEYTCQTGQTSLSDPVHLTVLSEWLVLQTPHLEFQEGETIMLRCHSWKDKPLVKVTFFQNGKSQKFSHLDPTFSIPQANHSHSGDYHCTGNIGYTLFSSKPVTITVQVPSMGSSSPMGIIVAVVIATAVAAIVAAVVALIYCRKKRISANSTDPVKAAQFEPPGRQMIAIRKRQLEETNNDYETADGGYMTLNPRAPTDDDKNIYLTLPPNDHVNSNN

“anti-Vα24Jα18 TCR mAb (6B11 mAb) (antibody)” gave a CD107a^+ iNKT cells (treated with 6B11 mAb 50 ng/mL overnight, washed) after coculture with K562 cells, E/T 2:1, in the presence of the blocking anti-CD32 mAb (10 µg/mL) of 1.8%, a CD107a^+ iNKT cells (treated with 6B11 mAb 50 ng/mL overnight, washed) after coculture with K562 cells, E/T 2:1, with isotype mIgG1 (10 µg/mL) of 52.8% and a CD107a^+ iNKT cells (treated with 6B11 mAb 50 ng/mL overnight, washed) after coculture with U937 cells, E/T 2:1, in the presence of the anti-CD32 mAb of 15.6%. It also gave a CD107a^+ iNKT cells (treated with 6B11 mAb 50 ng/mL overnight, washed) after coculture with U937 cells, E/T 2:1, with mIgG1 as a control of 38.3%.
